Values belong to the binder of their own block, whether it stands above or below them.
Target: T1, human CD40 expressed on CHO cells (human, UniProt P25942 21-277)
T1 construct: whole, on cells; also used for the reporter cells over-expressing human CD40; also called cellular CD40; CHO-CD40 cells
Experiment: FACS, CHO cells

T1 sequence (P25942 21-277): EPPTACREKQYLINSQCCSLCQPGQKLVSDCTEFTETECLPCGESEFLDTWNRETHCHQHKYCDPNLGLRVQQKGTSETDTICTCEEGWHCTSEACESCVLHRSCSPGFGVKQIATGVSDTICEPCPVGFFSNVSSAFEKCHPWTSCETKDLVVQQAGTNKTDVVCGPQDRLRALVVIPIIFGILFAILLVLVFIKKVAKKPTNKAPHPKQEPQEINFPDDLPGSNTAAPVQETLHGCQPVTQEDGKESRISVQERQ

- binding result: binds
B6: Ly807 (bispecific antibody, human IgG1, kappa)
heavy: QVQLQQPGAELVKPGASVKLSCKASGYTFTSYWMHWVKQRPGQGLEWIGMIHPNSGGTNYNEKFKGKGTLTVDKSSSTAYMQLSSLTSDDSAVYYCVTSQATWFAYWGQGTLVTVSAASTKGPSVFPLAPSSKSTSGGTAALGCLVKDYFPEPVTVSWNSGALTSGVHTFPAVLQSSGLYSLSSVVTVPSSSLGTQTYICNVNHKPSNTKVDKKVEPKSCDKTHTCPPCPAPELLGPSVFLFPPKPKDTLMISRTPEVTCVVVDVSHEDPEVKFNWYVDGVEVHNAKTKPREEQYNSTYRVVSVLTVLHQDWLNGKEYKCKVSNKALPAPIEKTISKAKGQPREPQVYTLPPSREEMTKNQVSLTCLVKGFYPSDIAVEWESNGQPENNYKTTPPVLDSDGSFFLYSKLTVDKSRWQQGNVFSCSVMHEALHNHYTQKSLSLSPG
light: ENVLTQSPAIMSVSPGEKVTMTCRASSSVSSSYLHWYQQKSGASPKFWIYSTSNLASGVPARFSGSGSGTSYSLTISSVEAEDAATYYCQHYSGYPLTFGAGTKLELRRTVAAPSVFIFPPSDEQLKSGTASVVCLLNNFYPREAKVQWKVDNALQSGNSQESVTEQDSKDSTYSLSSTLTLSKADYEKHKVYACEVTHQGLSSPVTKSFNRGECGGGGSGGGGSGGGGSGGGGSDIQMTQSPSSLSASVGDRVTITCLASEDISNDLAWYQQKPGKAPKLLIYFVDRLLDGVPSRFSGSGSGTDFTLTISSLQPEDFATYYCQQSYKYPPTFGQGTKLEIKGGGGSGGGGSGGGGSGGGGSEVQLVESGGGLVQPGGSLRLSCAASGFTFTNYGLHWVRQAPGKGLEWVSSISPSGGVTYYRDSVKGRFTISRDNSKNTLYLQMNSLRAEDTAVYYCAKPFLGWGGANWIAHWGQGTLVTVSS
notes: Ly387 HC (IgG1 mutated Fc) + Ly387 LC-TM559 scFv VL-VH

- binding result: binds
B7: Ly808 (bispecific antibody, human IgG1, kappa)
heavy: B6 heavy
light: ENVLTQSPAIMSVSPGEKVTMTCRASSSVSSSYLHWYQQKSGASPKFWIYSTSNLASGVPARFSGSGSGTSYSLTISSVEAEDAATYYCQHYSGYPLTFGAGTKLELRRTVAAPSVFIFPPSDEQLKSGTASVVCLLNNFYPREAKVQWKVDNALQSGNSQESVTEQDSKDSTYSLSSTLTLSKADYEKHKVYACEVTHQGLSSPVTKSFNRGECGGGGSGGGGSGGGGSGGGGSEVQLVESGGGLVQPGGSLRLSCAASGFTFTNYGLHWVRQAPGKGLEWVSSISPSGGVTYYRDSVKGRFTISRDNSKNTLYLQMNSLRAEDTAVYYCAKPFLGWGGANWIAHWGQGTLVTVSSGGGGSGGGGSGGGGSGGGGSDIQMTQSPSSLSASVGDRVTITCLASEDISNDLAWYQQKPGKAPKLLIYFVDRLLDGVPSRFSGSGSGTDFTLTISSLQPEDFATYYCQQSYKYPPTFGQGTKLEIK
notes: Ly387 HC (IgG1 mutated Fc) + Ly387 LC-TM559 scFv VH-VL

- binding result: binds
B8: Ly806 (bispecific antibody, human IgG1, kappa)
heavy: B6 heavy
light: ENVLTQSPAIMSVSPGEKVTMTCRASSSVSSSYLHWYQQKSGASPKFWIYSTSNLASGVPARFSGSGSGTSYSLTISSVEAEDAATYYCQHYSGYPLTFGAGTKLELRRTVAAPSVFIFPPSDEQLKSGTASVVCLLNNFYPREAKVQWKVDNALQSGNSQESVTEQDSKDSTYSLSSTLTLSKADYEKHKVYACEVTHQGLSSPVTKSFNRGECGGGGSGGGGSGGGGSGGGGSQVQLVESGGGLVQPGGSLKLSCATSGFNFNDYFMNWVRQASGKGLEWVGQIRNKNYNYATYYTESLEGRVTISRDDSKNTAYLQMNSLKTEDTAVYYCTSYYYDGFADYFDYWGQGTTVTVSSGGGGSGGGGSGGGGSGGGGSDIQMTQSPSSLSASVGDRVTITCKASQNIYIYLNWYQQKPGKAPKLLIYNTNNLQTGVPSRFSGSGSGTDFTLTISSLQPEDFATYYCLQHSSRRTFGGGTKVEIK
notes: Ly387 HC (IgG1 mutated Fc) + Ly387 LC-TM740 scFv VH-VL

- binding result: binds
B9: Ly470 (bispecific antibody, human IgG1, kappa)
heavy: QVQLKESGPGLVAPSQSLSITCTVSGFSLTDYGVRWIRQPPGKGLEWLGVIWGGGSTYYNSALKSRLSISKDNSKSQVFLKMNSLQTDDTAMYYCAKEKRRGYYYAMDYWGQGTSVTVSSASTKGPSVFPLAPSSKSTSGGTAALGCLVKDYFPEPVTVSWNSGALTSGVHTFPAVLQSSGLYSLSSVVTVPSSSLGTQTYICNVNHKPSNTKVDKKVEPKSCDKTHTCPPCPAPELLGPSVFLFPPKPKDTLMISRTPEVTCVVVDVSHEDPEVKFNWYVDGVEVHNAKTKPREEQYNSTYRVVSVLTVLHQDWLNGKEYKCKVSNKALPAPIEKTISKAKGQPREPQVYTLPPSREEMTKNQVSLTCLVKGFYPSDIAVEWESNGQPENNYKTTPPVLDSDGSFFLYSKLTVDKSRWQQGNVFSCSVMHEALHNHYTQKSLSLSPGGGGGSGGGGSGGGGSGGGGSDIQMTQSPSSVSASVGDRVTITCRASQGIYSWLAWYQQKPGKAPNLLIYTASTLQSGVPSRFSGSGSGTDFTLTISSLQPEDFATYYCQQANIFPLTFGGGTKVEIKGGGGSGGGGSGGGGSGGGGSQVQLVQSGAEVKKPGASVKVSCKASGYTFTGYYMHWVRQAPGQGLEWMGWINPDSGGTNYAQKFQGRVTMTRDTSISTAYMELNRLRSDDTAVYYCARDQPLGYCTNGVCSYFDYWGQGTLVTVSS
light: ENVLTQSPAIMSASPGEKVTMTCRASSSVSSSYLHWYQQKSGASPKLWIYSTSNLASGVPARFSGSGSGTSYSLTISSVEAEDAATYYCQQYSGYPLTFGGGTKLEIKRTVAAPSVFIFPPSDEQLKSGTASVVCLLNNFYPREAKVQWKVDNALQSGNSQESVTEQDSKDSTYSLSSTLTLSKADYEKHKVYACEVTHQGLSSPVTKSFNRGEC
notes: Ly368 HC-Ly253 scFv VL-VH + Ly368 LC

- binding result: binds
B10: Ly471 (bispecific antibody, human IgG1, kappa)
heavy: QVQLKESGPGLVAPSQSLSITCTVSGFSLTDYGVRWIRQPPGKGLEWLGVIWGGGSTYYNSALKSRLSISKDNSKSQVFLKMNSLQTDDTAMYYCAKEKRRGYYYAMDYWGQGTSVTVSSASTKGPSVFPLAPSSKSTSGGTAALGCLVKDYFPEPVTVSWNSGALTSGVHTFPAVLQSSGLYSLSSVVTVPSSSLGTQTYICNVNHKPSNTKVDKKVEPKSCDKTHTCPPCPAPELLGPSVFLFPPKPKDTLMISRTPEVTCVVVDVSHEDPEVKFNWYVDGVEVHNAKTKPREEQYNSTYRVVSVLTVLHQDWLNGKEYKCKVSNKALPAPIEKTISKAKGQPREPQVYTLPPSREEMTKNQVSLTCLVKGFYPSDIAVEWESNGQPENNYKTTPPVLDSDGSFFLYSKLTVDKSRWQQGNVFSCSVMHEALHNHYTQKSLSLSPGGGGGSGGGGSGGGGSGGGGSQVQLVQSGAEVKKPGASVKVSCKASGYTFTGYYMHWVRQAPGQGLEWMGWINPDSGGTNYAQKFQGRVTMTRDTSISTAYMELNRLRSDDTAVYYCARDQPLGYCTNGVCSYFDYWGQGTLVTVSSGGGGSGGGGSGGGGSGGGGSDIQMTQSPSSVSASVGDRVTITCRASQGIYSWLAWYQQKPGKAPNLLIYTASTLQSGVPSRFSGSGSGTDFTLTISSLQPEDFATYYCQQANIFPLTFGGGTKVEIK
light: B9 light
notes: Ly368 HC-Ly253 scFv VH-VL + Ly368 LC

- binding result: binds
B11: Ly472 (bispecific antibody, human IgG1, kappa)
heavy: QVQLKESGPGLVAPSQSLSITCTVSGFSLTDYGVRWIRQPPGKGLEWLGVIWGGGSTYYNSALKSRLSISKDNSKSQVFLKMNSLQTDDTAMYYCAKEKRRGYYYAMDYWGQGTSVTVSSASTKGPSVFPLAPSSKSTSGGTAALGCLVKDYFPEPVTVSWNSGALTSGVHTFPAVLQSSGLYSLSSVVTVPSSSLGTQTYICNVNHKPSNTKVDKKVEPKSCDKTHTCPPCPAPELLGPSVFLFPPKPKDTLMISRTPEVTCVVVDVSHEDPEVKFNWYVDGVEVHNAKTKPREEQYNSTYRVVSVLTVLHQDWLNGKEYKCKVSNKALPAPIEKTISKAKGQPREPQVYTLPPSREEMTKNQVSLTCLVKGFYPSDIAVEWESNGQPENNYKTTPPVLDSDGSFFLYSKLTVDKSRWQQGNVFSCSVMHEALHNHYTQKSLSLSPG
light: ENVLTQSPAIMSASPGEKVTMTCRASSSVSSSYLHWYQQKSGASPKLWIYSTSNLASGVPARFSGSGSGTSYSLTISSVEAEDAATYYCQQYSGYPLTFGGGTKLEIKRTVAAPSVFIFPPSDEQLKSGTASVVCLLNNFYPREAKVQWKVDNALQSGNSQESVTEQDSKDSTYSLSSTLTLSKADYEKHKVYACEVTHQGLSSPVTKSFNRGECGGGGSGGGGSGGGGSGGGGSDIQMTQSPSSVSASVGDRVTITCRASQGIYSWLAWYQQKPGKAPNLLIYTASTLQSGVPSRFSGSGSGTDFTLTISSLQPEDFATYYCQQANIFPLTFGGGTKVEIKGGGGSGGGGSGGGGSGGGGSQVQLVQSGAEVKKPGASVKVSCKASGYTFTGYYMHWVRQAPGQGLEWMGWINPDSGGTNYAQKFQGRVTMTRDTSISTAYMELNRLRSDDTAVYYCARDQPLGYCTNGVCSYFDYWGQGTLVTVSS
notes: Ly368 HC + Ly368 LC-Ly253 scFv VL-VH

- binding result: binds
B12: Ly473 (bispecific antibody, human IgG1, kappa)
heavy: B11 heavy
light: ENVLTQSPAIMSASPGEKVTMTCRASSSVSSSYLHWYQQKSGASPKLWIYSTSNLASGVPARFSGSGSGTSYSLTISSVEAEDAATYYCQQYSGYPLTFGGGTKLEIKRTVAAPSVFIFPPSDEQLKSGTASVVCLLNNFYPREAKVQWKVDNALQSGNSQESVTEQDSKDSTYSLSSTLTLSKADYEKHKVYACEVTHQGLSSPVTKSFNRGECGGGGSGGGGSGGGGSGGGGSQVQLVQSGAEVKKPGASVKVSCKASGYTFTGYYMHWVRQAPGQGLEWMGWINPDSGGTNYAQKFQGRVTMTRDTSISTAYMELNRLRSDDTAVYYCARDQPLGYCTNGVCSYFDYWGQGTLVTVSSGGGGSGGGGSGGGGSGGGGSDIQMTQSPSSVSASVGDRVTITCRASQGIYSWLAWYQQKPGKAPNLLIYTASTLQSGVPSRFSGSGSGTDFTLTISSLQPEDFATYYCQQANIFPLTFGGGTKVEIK
notes: Ly368 HC + Ly368 LC-Ly253 scFv VH-VL

The remaining lines, values behind:

B1: Ly801 (bispecific antibody, human IgG1, kappa)
heavy: EVQLQQSGPELVKPGASVKMSCKASGYTFTSYVMHWVKQKPGQGLEWIGYINPYNDGTECTDKFKGKATLTSDKSSSTAYMELSSLTSEDSAVYYCASIYYGYDGTYFGVWGAGTSVTVSSASTKGPSVFPLAPSSKSTSGGTAALGCLVKDYFPEPVTVSWNSGALTSGVHTFPAVLQSSGLYSLSSVVTVPSSSLGTQTYICNVNHKPSNTKVDKKVEPKSCDKTHTCPPCPAPELLGPSVFLFPPKPKDTLMISRTPEVTCVVVDVSHEDPEVKFNWYVDGVEVHNAKTKPREEQYNSTYRVVSVLTVLHQDWLNGKEYKCKVSNKALPAPIEKTISKAKGQPREPQVYTLPPSREEMTKNQVSLTCLVKGFYPSDIAVEWESNGQPENNYKTTPPVLDSDGSFFLYSKLTVDKSRWQQGNVFSCSVMHEALHNHYTQKSLSLSPG
light: QIVLSQSPAILSTSPGEKVTMTCRASSSVSYMHWYQQKPGSSPKPWIYATSNLASGVPARFSGSRSGTSYSLTISRVEAEDAATYYCQQWSSNTLTFGGGTKLELKRTVAAPSVFIFPPSDEQLKSGTASVVCLLNNFYPREAKVQWKVDNALQSGNSQESVTEQDSKDSTYSLSSTLTLSKADYEKHKVYACEVTHQGLSSPVTKSFNRGECGGGGSGGGGSGGGGSGGGGSDIQMTQSPSSLSASVGDRVTITCKASQNIYIYLNWYQQKPGKAPKLLIYNTNNLQTGVPSRFSGSGSGTDFTLTISSLQPEDFATYYCLQHSSRRTFGGGTKVEIKGGGGSGGGGSGGGGSGGGGSQVQLVESGGGLVQPGGSLKLSCATSGFNFNDYFMNWVRQASGKGLEWVGQIRNKNYNYATYYTESLEGRVTISRDDSKNTAYLQMNSLKTEDTAVYYCTSYYYDGFADYFDYWGQGTTVTVSS
notes: Ly383 HC (IgG1 mutated Fc) + Ly383 LC-TM740 scFv VL-VH
- binding result: binds

B2: Ly802 (bispecific antibody, human IgG1, kappa)
heavy: B1 heavy
light: QIVLSQSPAILSTSPGEKVTMTCRASSSVSYMHWYQQKPGSSPKPWIYATSNLASGVPARFSGSRSGTSYSLTISRVEAEDAATYYCQQWSSNTLTFGGGTKLELKRTVAAPSVFIFPPSDEQLKSGTASVVCLLNNFYPREAKVQWKVDNALQSGNSQESVTEQDSKDSTYSLSSTLTLSKADYEKHKVYACEVTHQGLSSPVTKSFNRGECGGGGSGGGGSGGGGSGGGGSQVQLVESGGGLVQPGGSLKLSCATSGFNFNDYFMNWVRQASGKGLEWVGQIRNKNYNYATYYTESLEGRVTISRDDSKNTAYLQMNSLKTEDTAVYYCTSYYYDGFADYFDYWGQGTTVTVSSGGGGSGGGGSGGGGSGGGGSDIQMTQSPSSLSASVGDRVTITCKASQNIYIYLNWYQQKPGKAPKLLIYNTNNLQTGVPSRFSGSGSGTDFTLTISSLQPEDFATYYCLQHSSRRTFGGGTKVEIK
notes: Ly383 HC (IgG1 mutated Fc) + Ly383 LC-TM740 scFv VH-VL
- binding result: binds

B3: Ly804 (bispecific antibody, human IgG1, kappa)
heavy: B1 heavy
light: QIVLSQSPAILSTSPGEKVTMTCRASSSVSYMHWYQQKPGSSPKPWIYATSNLASGVPARFSGSRSGTSYSLTISRVEAEDAATYYCQQWSSNTLTFGGGTKLELKRTVAAPSVFIFPPSDEQLKSGTASVVCLLNNFYPREAKVQWKVDNALQSGNSQESVTEQDSKDSTYSLSSTLTLSKADYEKHKVYACEVTHQGLSSPVTKSFNRGECGGGGSGGGGSGGGGSGGGGSEVQLVESGGGLVQPGGSLRLSCAASGFTFTNYGLHWVRQAPGKGLEWVSSISPSGGVTYYRDSVKGRFTISRDNSKNTLYLQMNSLRAEDTAVYYCAKPFLGWGGANWIAHWGQGTLVTVSSGGGGSGGGGSGGGGSGGGGSDIQMTQSPSSLSASVGDRVTITCLASEDISNDLAWYQQKPGKAPKLLIYFVDRLLDGVPSRFSGSGSGTDFTLTISSLQPEDFATYYCQQSYKYPPTFGQGTKLEIK
notes: Ly383 HC (IgG1 mutated Fc) + Ly383 LC-TM559 scFv VH-VL
- binding result: binds

B4: Ly803 (bispecific antibody, human IgG1, kappa)
heavy: B1 heavy
light: QIVLSQSPAILSTSPGEKVTMTCRASSSVSYMHWYQQKPGSSPKPWIYATSNLASGVPARFSGSRSGTSYSLTISRVEAEDAATYYCQQWSSNTLTFGGGTKLELKRTVAAPSVFIFPPSDEQLKSGTASVVCLLNNFYPREAKVQWKVDNALQSGNSQESVTEQDSKDSTYSLSSTLTLSKADYEKHKVYACEVTHQGLSSPVTKSFNRGECGGGGSGGGGSGGGGSGGGGSDIQMTQSPSSLSASVGDRVTITCLASEDISNDLAWYQQKPGKAPKLLIYFVDRLLDGVPSRFSGSGSGTDFTLTISSLQPEDFATYYCQQSYKYPPTFGQGTKLEIKGGGGSGGGGSGGGGSGGGGSEVQLVESGGGLVQPGGSLRLSCAASGFTFTNYGLHWVRQAPGKGLEWVSSISPSGGVTYYRDSVKGRFTISRDNSKNTLYLQMNSLRAEDTAVYYCAKPFLGWGGANWIAHWGQGTLVTVSS
notes: Ly383 HC (IgG1 mutated Fc) + Ly383 LC-TM559 scFv VL-VH
- binding result: binds

B5: Ly805 (bispecific antibody, human IgG1, kappa)
heavy: B6 heavy
light: ENVLTQSPAIMSVSPGEKVTMTCRASSSVSSSYLHWYQQKSGASPKFWIYSTSNLASGVPARFSGSGSGTSYSLTISSVEAEDAATYYCQHYSGYPLTFGAGTKLELRRTVAAPSVFIFPPSDEQLKSGTASVVCLLNNFYPREAKVQWKVDNALQSGNSQESVTEQDSKDSTYSLSSTLTLSKADYEKHKVYACEVTHQGLSSPVTKSFNRGECGGGGSGGGGSGGGGSGGGGSDIQMTQSPSSLSASVGDRVTITCKASQNIYIYLNWYQQKPGKAPKLLIYNTNNLQTGVPSRFSGSGSGTDFTLTISSLQPEDFATYYCLQHSSRRTFGGGTKVEIKGGGGSGGGGSGGGGSGGGGSQVQLVESGGGLVQPGGSLKLSCATSGFNFNDYFMNWVRQASGKGLEWVGQIRNKNYNYATYYTESLEGRVTISRDDSKNTAYLQMNSLKTEDTAVYYCTSYYYDGFADYFDYWGQGTTVTVSS
notes: Ly387 HC (IgG1 mutated Fc) + Ly387 LC-TM740 scFv VL-VH
- binding result: binds
